Assay results as given in patent US20240218374, “Nucleic Acid Compounds That Bind Coronavirus Proteins” (Somalogic Operating Co., Inc., published 2024).

Biological target: Spike RBD (SARS-CoV-2, UniProt P0DTC2 SEQ:1-223)
Assay: filter

B1: 26874-29_4 (SL1111) (ssDNA)
DNA: CCTTGGGATACTATGCGTCCGACCGCTCGGACGGAGAAGG
modifications: Y=Tyr-dU, p=Nap-dC; printed …pYAYGpGYppGAppGpYpGGApGGAGAAGG [Tyr-dU: 9,12,14,18,27; Nap-dC: 11,16,19,20,23,24,26,28,32]
- Kd: 0.3 nM
